Legend:
[1] = target: T1, human SIRP-α V1 D1 domain-6His (human, UniProt P78324 31-149); experiment: SPR (Biacore 8K), conjugate captured on Protein A chip, His-tagged SIRP-α as analyte, single cycle kinetics; pH 6.0, 25 C
T1 construct: also called Analyte A
Procedure: (§1) Binding of the anti-SIRP-α antibody conjugate was measured using a Biacore 8K high throughput, high-sensitivity SPR system (Cytiva, Global Life Sciences Solutions USA LLC, Marlborough, MA) equipped with S-type sensor chips. The interaction of the conjugate with SIRP-α was analyzed by flowing His-tagged SIRP-α over Protein A captured anti-SIRP-α antibody conjugate on a Biacore Series S Protein A Sensor Chip. The anti-SIRP-α antibody portion of the conjugate comprised a heavy chain comprising the sequence of SEQ ID NO:66 and a light chain comprising the sequence of SEQ ID NO:73 conjugated to CpG oligo 7-7 (SEQ ID NO: 35).
(§2) All SIRP-α analytes were injected in single cycle kinetics mode at nominal starting concentrations of 100 nM with 3-fold serial dilutions with the exception of rat SIRP-α. Higher starting concentration of 300 nM was used for assessing binding to rat SIRP-α at pH 7.4. Association times were monitored for 120 s, and dissociation times were monitored 600 s at 30 μL/min flow rate. The surfaces were regenerated with 75 mM phosphoric acid at pH1.65 for two pulses of 15 s at 30 μL/min flow rate. Experiments were done at either 25° C. or 37° C. and at pH 6.0 or 7.4. Assay buffers were 1×PBS 0.01% Tween-20 at pH 6.0 with and 1×HBS-EP+ (10 mM HEPES, pH7.4, 150 mM NaCl, 3 mM EDTA, 0.05% (v/v) Surfactant P20) at pH 7.4. All data points were collected in duplicate or greater.
(§3) The data were processed and analyzed with Biacore 8K Evaluation Software Version 4.0.8.20368 (Cytiva, Global Life Sciences Solutions USA LLC, Marlborough, MA). Reference responses from flow cell 1 were subtracted from the active responses from flow cell 2 to obtain the subtracted data (2-1). The responses from the nearest buffer blank injection were then subtracted from the reference subtracted data (2-1) to yield double-referenced data. These double-reference data were fit to a simple 1:1 Langmuir binding model with mass transport to determine the apparent association (ka) and dissociation rate constants (kd). The apparent equilibrium dissociation constant or affinity constant was then calculated based on their ratio as (KD=kd/ka).

[2] = target: T2, human SIRP-α V2 D1 domain-6His (human); experiment: as above
T2 construct: also called Analyte B
T2 sequence (chain, as listed by the source limits assumed): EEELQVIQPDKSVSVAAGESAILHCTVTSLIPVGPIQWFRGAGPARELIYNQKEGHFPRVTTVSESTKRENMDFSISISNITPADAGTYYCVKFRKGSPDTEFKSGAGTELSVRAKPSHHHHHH
Procedure: as §1, §2, §3

[3] = target: T3, Cyno SIRP-α V4 D1 domain-6His-Avi (cynomolgus, limits assumed); experiment: as above
T3 construct: also called Analyte C
T3 chain: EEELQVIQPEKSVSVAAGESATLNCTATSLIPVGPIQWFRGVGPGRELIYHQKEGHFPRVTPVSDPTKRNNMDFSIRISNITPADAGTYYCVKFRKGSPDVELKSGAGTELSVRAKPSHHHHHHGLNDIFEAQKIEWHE
Procedure: as §1, §2, §3

[4] = target: T4, Mouse SIRP-α normal D1 domain-6His (mouse); experiment: as above
T4 construct: also called Analyte D
T4 chain: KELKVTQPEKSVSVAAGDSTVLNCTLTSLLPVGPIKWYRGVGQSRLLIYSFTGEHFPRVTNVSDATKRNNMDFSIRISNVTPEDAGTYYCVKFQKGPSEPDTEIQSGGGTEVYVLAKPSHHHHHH
Procedure: as §1, §2, §3

[5] = target: T5, Rat SIRP-α K32-N373-ECD-6His (rat, UniProt P97710 32-373); experiment: as above
T5 construct: K32-N373 in the name counts on the natural rat protein; also called Analyte E; Rat SIRPα-ECD
T5 sequence: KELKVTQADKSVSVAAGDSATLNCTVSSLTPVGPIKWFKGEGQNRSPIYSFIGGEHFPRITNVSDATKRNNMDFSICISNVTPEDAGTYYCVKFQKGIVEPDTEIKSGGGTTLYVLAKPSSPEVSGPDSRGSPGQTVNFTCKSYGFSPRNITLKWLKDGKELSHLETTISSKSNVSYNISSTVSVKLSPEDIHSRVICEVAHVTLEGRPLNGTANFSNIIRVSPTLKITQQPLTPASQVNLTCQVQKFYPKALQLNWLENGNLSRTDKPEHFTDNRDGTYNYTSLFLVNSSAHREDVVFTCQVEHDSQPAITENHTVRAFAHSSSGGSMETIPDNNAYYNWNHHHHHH
Procedure: as §1, §2, §3

[6] = target: T1, human SIRP-α V1 D1 domain-6His; experiment: SPR (Biacore 8K), conjugate captured on Protein A chip, His-tagged SIRP-α as analyte, single cycle kinetics; pH 6.0, 37 C
Procedure: as §1, §2, §3

[7] = target: T2, human SIRP-α V2 D1 domain-6His; experiment: as above
Procedure: as §1, §2, §3

[8] = target: T3, Cyno SIRP-α V4 D1 domain-6His-Avi; experiment: as above
Procedure: as §1, §2, §3

[9] = target: T4, Mouse SIRP-α normal D1 domain-6His; experiment: as above
Procedure: as §1, §2, §3

[10] = target: T5, Rat SIRP-α K32-N373-ECD-6His; experiment: as above
Procedure: as §1, §2, §3

[11] = target: T1, human SIRP-α V1 D1 domain-6His; experiment: SPR (Biacore 8K), conjugate captured on Protein A chip, His-tagged SIRP-α as analyte, single cycle kinetics; pH 7.4, 25 C
Procedure: as §1, §2, §3

[12] = target: T2, human SIRP-α V2 D1 domain-6His; experiment: as above
Procedure: as §1, §2, §3

[13] = target: T3, Cyno SIRP-α V4 D1 domain-6His-Avi; experiment: as above
Procedure: as §1, §2, §3

[14] = target: T4, Mouse SIRP-α normal D1 domain-6His; experiment: as above
Procedure: as §1, §2, §3

[15] = target: T5, Rat SIRP-α K32-N373-ECD-6His; experiment: as above
Procedure: as §1, §2, §3

[16] = target: T1, human SIRP-α V1 D1 domain-6His; experiment: SPR (Biacore 8K), conjugate captured on Protein A chip, His-tagged SIRP-α as analyte, single cycle kinetics; pH 7.4, 37 C
Procedure: as §1, §2, §3

[17] = target: T2, human SIRP-α V2 D1 domain-6His; experiment: as above
Procedure: as §1, §2, §3

[18] = target: T3, Cyno SIRP-α V4 D1 domain-6His-Avi; experiment: as above
Procedure: as §1, §2, §3

[19] = target: T4, Mouse SIRP-α normal D1 domain-6His; experiment: as above
Procedure: as §1, §2, §3

[20] = target: T5, Rat SIRP-α K32-N373-ECD-6His; experiment: as above
Procedure: as §1, §2, §3

T1 sequence (P78324 other isoform, or with tags, fused parts or gaps limits assumed): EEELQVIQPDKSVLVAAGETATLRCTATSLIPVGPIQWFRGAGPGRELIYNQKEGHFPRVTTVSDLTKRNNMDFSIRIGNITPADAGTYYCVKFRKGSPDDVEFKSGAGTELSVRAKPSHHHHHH

B1: anti-SIRP-α antibody-CpG oligonucleotide conjugate (human IgG4 heavy chain SEQ ID NO:66, light chain SEQ ID NO:73, conjugated to CpG oligo 7-7, SEQ ID NO:35) (antibody, V domains shown)
VH: EVQLVESGGGVVQPGGSLRLSCAASGFTFSSNAMSWVRQAPGKGLEWVAGISAGGSDTYYPASVKGRFTISRDNSKNTLYLQMNSLRAEDTAVYYCARETWNHLFDYWGQGTLVTVSS
VL: SYELTQPPSVSVSPGQTARITCSGGSYSSYYYAWYQQKPGQAPVTLIYSDDKRPSNIPERFSGSSSGTTVTLTISGVQAEDEADYYCGGYDQSSYTNPFGGGTKLTVLG
modifications: CpG oligo 7-7 (SEQ ID NO:35) with PEG linker attached by an amide bond to the glutamine of the C-terminal Q-tag RPQGFGPP; the general method pools DAR1 fractions (one CpG per antibody)
notes: The oligonucleotide payload is not a protein; also called anti-SIRP-α antibody conjugate; anti-hIgG4 SIRP-α conjugate
- Kd [1]: < 0.001 nM
- Kd [2]: < 0.001 nM
- Kd [3]: 0.05 nM
- Kd [4]: < 0.001 nM
- Kd [5]: 3.8 nM
- Kd [6]: < 0.001 nM
- Kd [7]: 0.01 nM
- Kd [8]: 0.1 nM
- Kd [9]: 0.07 nM
- Kd [10]: 8.5 nM
- Kd [11]: 0.1 nM
- Kd [12]: 0.23 nM
- Kd [13]: 0.45 nM
- Kd [14]: 0.69 nM
- Kd [15]: 61.4 nM
- Kd [16]: 0.28 nM
- Kd [17]: 0.51 nM
- Kd [18]: 0.71 nM
- Kd [19]: 1.63 nM
- Kd [20]: 175 nM

Source: patent publication US20240374746A1 (TALLAC THERAPEUTICS, published 2024)
